Reference: PMC6599547 (Journal of molecular biology, 2019)

Target: T1, N-terminally tagged soluble SARAF luminal domain, SP-XFP-SARAFL-R (SARAF(Δ165-339) with signal peptide and … (human, UniProt Q96BY9 31-164))
T1 sequence: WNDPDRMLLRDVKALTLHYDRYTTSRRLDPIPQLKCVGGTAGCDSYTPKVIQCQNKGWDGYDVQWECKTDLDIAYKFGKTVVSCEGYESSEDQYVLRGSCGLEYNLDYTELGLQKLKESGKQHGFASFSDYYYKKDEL
Assay: FRET or BRET

- FRET signal, fold over the pair with both fluorophores at the N-terminus: ~3 fold
B1: C-terminally tagged soluble SARAF luminal domain, SP-SARAFL-XFP-R (domain or fragment, human)
chain: WNDPDRMLLRDVKALTLHYDRYTTSRRLDPIPQLKCVGGTAGCDSYTPKVIQCQNKGWDGYDVQWECKTDLDIAYKFGKTVVSCEGYESSEDQYVLRGSCGLEYNLDYTELGLQKLKESGKQHGFASFSDYYYKTGRPACKIPNDLKQKVMNHKDEL
